Here are results for three substances from US20050112552A1, “Identification and isolation of novel polypeptides having PDZ domains and methods of using same” (AxCell Biosciences Corporation, priority 2000, published 2005).

Read-outs that look alike come from different tables or passages of the source. Where no end group is shown, it is not given here.

Experiment [1] deals with T1, interaction between the first PDZ domain in PSD-95 and the carboxy terminal peptide sequence of Na channel protein (Homo sapiens, UniProt P78352).
T1 construct: a GST-PSD-95.1 fusion protein of the first PDZ domain of PSD-95; made in house
Kind of experiment: Competitive inhibition analysis of PDZ domain-peptide ligand interaction. It is filed as binding. The settings on record: GST-PSD-95.1 coated plates, biotinylated Na+ channel peptide (SEQ ID NO:51), various inhibitor concentrations, A405 nm. The source says: FIG. 19 presents a competitive inhibition analysis of the interaction between the first PDZ domain in PSD-95 and the carboxy terminal peptide sequence of Na channel protein. GST fusion protein containing the first PZD domain of PSD-95 was contacted with a recognition unit-peptide complex corresponding to the 12 carboxyl terminal amino acids of Na^+ channel protein (FIG. 5A, SEQ ID NO:51) and various concentrations of 1 of 3 different inhibitor peptide complexes. Binding of the dimer inhibitor peptide in the presence of streptavidin alkaline phosphatase/Biotin-Ser-Gly-Ser-Gly-Pro-Pro-Ser-Pro-Asp-Arg-Asp-Arg-Glu-Ser-Ile-Val-COOH (SEQ ID NO:157) is presented as a solid box. Binding of the recognition unit in the presence of a peptide corresponding to the 5 carboxy terminal residues of the Na^+ channel protein (SEQ ID NO:105) (hatched box), and in the presence of a scrambled version of this 5mer (SEQ ID NO:158) (open box), are also presented. Binding of the biotinylated peptide was quantitated at A405 nm. […]
An inhibition assay essentially as described in Section 5.4 was performed to assess the ability of PDZ ligands to uncouple NOS from the NMDA receptor. […] Particularly, biotinylated peptide and various concentrations of an inhibitor were added to microtiter plates coated with the GST-PSD-95.1 fusion protein and the binding interactions were quantified as described above. […]

Experiment [2] deals with T2, second PDZ domain of PSD-95 (Homo sapiens, UniProt P78352). The settings on record: cross-affinity map, in words. An excerpt:
(§1) To determine the ligand preferences of the novel PDZ domain-containing clones described in Section 6.1 the novel PDZ domains derived from PDZP2, PDZP3, KIAA-147, and the three PDZ domains of PSD-95 and Chapsyn were subcloned into glutathione S-transferase (GST) expression vectors and expressed as GST fusion proteins. We examined the peptide ligand binding preferences of all sixteen individual PDZ domains in an enzyme-linked immunosorbent assay-based cross-affinity map experiment. As mentioned above, 45 peptides were chosen from database searches and grouped into seven classes (G-protein coupled receptors, viral proteins, glutamate receptors, ion channels, Frizzled homologs, transporters and various other proteins). We tested the ability of these peptides to bind to the known and novel PDZ domains.
(§2) PCR fragments encoding individual PDZ domains were subcloned into the Sal1 and Notl sites of pGEX-4T-2 (Pharmacia Biotech, Inc.) and fusion proteins were expressed and purified as described by the manufacturer. ELISA based cross-affinity experiments were performed essentially as described by Sparks et al. (1996, Proc. Natl. Acad. Sci. USA 93:1540-1544) with the following modifications. Briefly, microtiter wells were coated with […] of fusion protein in 100 mM NaHCO3, blocked with SuperBlock TBS (Pierce) and washed four times with PBS, 0.05% Tween 20. Specific peptide-streptavidin/alkaline phosphatase complexes were added as above and unbound complexes washed five times with PBS, 0.05% Tween 20. Following addition of PNP substrate (p-nitrophenyl phosphate, Kirkegard & Perry Labs), peptide binding was quantitated after 30 min. at O.D. 405 nm. Relative binding measurements from three independent determinations were assigned to a scale as follows: O.D. units 0−0.5=(−), 0.5−1.0=(+), 1.0−2.0=(++), 2.0−3.0=(+++)>3.0=(++++). Peptide sequences used in cross-affinity experiments correspond to C-terminal segments of the following proteins: protein name (species: H=Human; M=Mouse; R=Rat; B=Bovine; V=Viral Origin, Genbank accession number); β1-adrenoreceptor (H, P18090); Serotonin Receptor (H, P28223); VIP Receptor (H, P32241); CRF Receptor (H, P34998); Orphan Receptor (H, P46089); β-1 Adrenergic Receptor (H, P08588); COM (ADE02, P03267); E6, HPV18 (V, P06463); UL25, HSV11 (V, P10209); GP3, EBV (V, P03200); TAT, HTL1A (V, P03409); UL14, VZVD (V, P09295); NMDA Receptor, NR2B (M, Q01097); NMDA Receptor subunit (H, U08266); mGluR1α (H, U31215); mGluR5a (H, D28538); mGluR (H, L76631); mGluR3 (H, AC002081); AMPA receptor (H, L20814); K^+-Channel, KV 1.4 (H, P22459); K^+-Channel Kir 2.2v (H, U53143); Na^+-Channel (a) (H, P15389); K^+-Channel (Kir) (H, D50582); Transmembrane Receptor (Homolog of frizzled ) (H, U43318); Homolog of frizzled (R, L02529); Homolog of frizzled (M, U43319); Glucose transporter (H, P11166); Excitatory Amino Acid Transporter (H, P43003); FAS Receptor (H, P25445); NGF Receptor (H, P08138); Neuropeptide Y Receptor, type 2 (H, P49146); Somatostatin Receptor, type 2 (H, P30874); CFTR (H, P13569); V-CAM (H, P19320); Ankyrin (H, Q01484); Fanconi anemia group C protein (H , Q00597); Calcium pump (H, P23634); APC protein (H, P25054); BCR, (H, P11274); MPK2 (H, P36507); Colorectal Mutant Cancer Protein (H, P23508); 65 KD Yes-Associated Protein (H, P46937); Neutrophil Cytosol Factor 1 (H, P14598); Neurexin III, (B, L27869); Neurexin II (B, L14855). Protein sequence homology searches were performed using BLAST (Altschul et al., 1990, J. Mol. Biol. 215:403-410).

Experiment [3] deals with second PDZ domain of Chapsyn (Homo sapiens, UniProt Q15700). The settings on record: cross-affinity map; in words.
Description: as §1, §2

Experiment [4] has as its target third PDZ domain of PSD-95 (Homo sapiens, UniProt P78352, D348N). Particulars: cross-affinity map; in words.
Description: as §1, §2

The target of experiment [5] is first PDZ domain of Chapsyn (Homo sapiens, UniProt Q15700, V177A). Particulars: cross-affinity map; in words.
Description: as §1, §2

Experiment [6] deals with third PDZ domain of Chapsyn (Homo sapiens, UniProt Q15700). The settings on record: cross-affinity map; in words.
Description: as §1, §2

The target in a further experiment is PDZP2.3 (Homo sapiens, UniProt Q96QZ7). The settings on record: GST fusion protein. On the procedure:
(§3) Assays that generate the data, e.g., that of FIGS. 5A and 5B, are conducted in the presence of various compounds that potentially effect the binding of the domains to respective recognition units.
as §1, §2

Experiment [7] addresses first PDZ domain of PSD-95 (PSD-95-1) (Homo sapiens, UniProt P78352). Particulars: for binding to the first PDZ domain of PSD-95: cross-affinity map, no test compound, in words; for PDZ domain-recognition unit interaction, PSD-95-1: GST fusion protein. On the procedure:
as §3, §1, §2

The target of the next experiment is PDZP2.2 (Homo sapiens, UniProt Q96QZ7). The settings on record: GST fusion protein. On the procedure: as §3, §1, §2
PDZP2.2, sequence (Q96QZ7 639-720 limits assumed): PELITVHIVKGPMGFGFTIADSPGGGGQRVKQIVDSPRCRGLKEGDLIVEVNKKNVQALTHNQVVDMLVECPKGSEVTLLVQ
A further experiment concerns the target PDZP3.1 (Homo sapiens, UniProt Q8NI35). The settings on record: GST fusion protein. On the procedure: as §3, §1, §2
In another experiment the target is PDZP3.2 (Homo sapiens, UniProt Q8NI35). Particulars: GST fusion protein. The protocol:
as §3, §1, §2

A further experiment concerns the target PDZP2.1 (Homo sapiens, UniProt Q96QZ7, D549G/L550P). Particulars: GST fusion protein. The protocol: as §3, §1, §2
Another experiment deals with PDZP2.4 (Homo sapiens, UniProt Q96QZ7). Particulars: GST fusion protein. On the procedure:
as §3, §1, §2

Experiment [8] concerns the target T2, second PDZ domain of PSD-95. Set-up: PCR fragments encoding individual PDZ domains were subcloned; made in house. The settings on record: stated as known; cited from earlier work.
The mark [9] stands for this setting: listed as NMDA receptor NR2 subunit.

PDZP2.4, sequence (Q96QZ7 with tags, fused parts or gaps isoform Q96QZ7-2 limits assumed): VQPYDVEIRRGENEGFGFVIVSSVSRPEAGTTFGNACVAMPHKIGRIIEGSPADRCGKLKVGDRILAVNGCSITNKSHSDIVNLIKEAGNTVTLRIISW
PDZP2.1, sequence (Q96QZ7 468-553 D549G/L550P limits assumed): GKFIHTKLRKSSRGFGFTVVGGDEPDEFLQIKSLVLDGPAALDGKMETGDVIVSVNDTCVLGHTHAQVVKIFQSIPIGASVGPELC
PDZP2.3, sequence (Q96QZ7 837-922 limits assumed): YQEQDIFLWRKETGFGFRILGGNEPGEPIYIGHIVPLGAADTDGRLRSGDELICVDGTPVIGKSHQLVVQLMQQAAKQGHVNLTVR
PDZP3.2, sequence (Q8NI35 1530-1614 limits assumed): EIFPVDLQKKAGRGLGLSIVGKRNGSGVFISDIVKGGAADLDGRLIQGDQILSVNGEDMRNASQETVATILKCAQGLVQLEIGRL
PDZP3.1, sequence (Q8NI35 1433-1519 limits assumed): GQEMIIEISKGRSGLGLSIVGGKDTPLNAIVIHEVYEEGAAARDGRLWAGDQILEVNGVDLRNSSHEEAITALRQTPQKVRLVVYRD

With “AC-Cys-Pro-Pro-Ser-Pro-Asp-Arg-Asp-Arg-Glu-Ser-Ile-Val-COOH (Ac-CPPSPDRDRESIV-OH) [dimer inhibitor]”, in experiment [1], the “inhibition of the interaction of the PDZ domain and ligand” value is recorded as “able to inhibit”.
Regarding “Arg-Glu-Ser-Ile-Val-COOH (RESIV-OH) [5mer containing the carboxy terminal 5 residues of the Na+ channel peptide]”, the “inhibition of the interaction of the PDZ domain and ligand” value in experiment [1] was “to a lesser extent”.
With “SEQ ID NO. 42: biotinylated peptide, 12 carboxy terminal amino acids of NMDA (NR2B), mouse (VYEKLSSIESDV; not fully specified; also: biotinylated, position not given here)”, the “binding to the second PDZ domain of PSD-95” value in experiment [2] was “positive interaction”; in experiment [2] (setting [9]), “bind to the first and second PDZ domain”; in [8], “binds”. In [3], the “binding to the second PDZ domain of Chapsyn” value is “same binding specificities”. Moreover, the “binding to the third PDZ domain of PSD-95” value in experiment [4] is “not the third PDZ domain”. Also, the “binding to the first PDZ domain of Chapsyn” value in experiment [5] is “same binding specificities”. Moreover, in [6], the “binding to the third PDZ domain of Chapsyn” value is “same binding specificities”. For the same substance, the figures for the “PDZ domain-recognition unit interaction, PDZ2.3” value with PDZP2.3 (in the presence of Compound A), with PDZP2.3 (in the presence of Compound B) and with PDZP2.3 (in the presence of Compound C) were “+ (0.5−1.0=(+))”, “++++ (>3.0=(++++))” and “+ (0.5−1.0=(+))”, respectively. Moreover, the “binding to the first PDZ domain of PSD-95” value in [7] is “positive interaction”; in experiment [7] (setting [9]) it was “bind to the first and second PDZ domain”. The entries for the “PDZ domain-recognition unit interaction, PSD-95-1” value in experiment [7] (in the presence of Compound A), in experiment [7] (in the presence of Compound B) and in experiment [7] (in the presence of Compound C) were “− (O.D. units 0−0.5=(−))”, “+++ (2.0−3.0=(+++))” and “+++ (2.0−3.0=(+++))”, respectively. The “PDZ domain-recognition unit interaction, PDZ2.2” value is “+ (0.5−1.0=(+))” in the experiment with PDZP2.2 (in the presence of Compound A), “+++ (2.0−3.0=(+++))” with PDZP2.2 (in the presence of Compound B) and “+ (0.5−1.0=(+))” with PDZP2.2 (in the presence of Compound C). In addition, the “PDZ domain-recognition unit interaction, PDZ3.1” value in the experiment with PDZP3.1 (in the presence of Compound A) was “+ (0.5−1.0=(+))”; with PDZP3.1 (in the presence of Compound B), “++++ (>3.0=(++++))”; in the experiment with PDZP3.1 (in the presence of Compound C), “++++ (>3.0=(++++))”. In addition, the “PDZ domain-recognition unit interaction, PDZ3.2” value in the experiment with PDZP3.2 (in the presence of Compound A), with PDZP3.2 (in the presence of Compound B) and with PDZP3.2 (in the presence of Compound C) was “− (O.D. units 0−0.5=(−))” in each case. The “PDZ domain-recognition unit interaction, PDZP2.1” value is recorded as “+ (0.5−1.0=(+))” with PDZP2.1 (in the presence of Compound A), “++++ (>3.0=(++++))” with PDZP2.1 (in the presence of Compound B) and “+ (0.5−1.0=(+))” with PDZP2.1 (in the presence of Compound C). Moreover, the “PDZ domain-recognition unit interaction, PDZ2.4” value in the experiment with PDZP2.4 (in the presence of Compound A) is “+ (0.5−1.0=(+))”; with PDZP2.4 (in the presence of Compound B) it was “++++ (>3.0=(++++))”; with PDZP2.4 (in the presence of Compound C) it was “+ (0.5−1.0=(+))”.
